Measured values taken from paper PMC5481773, “Structural insights into the function of ZRANB3 in replication stress response” (Nature Communications, 2017).

Tests used:
[1] = NADH-coupled ATPase assay of ZRANB3 proteins; format: biochemical; conditions: 150 nM ZRANB3, 5 mM ATP, 0.5 μM flap DNA, 24 °C, average rates
Experimental: The NADH-coupled ATPase assay is based on a reaction in which the regeneration of hydrolysed ATP is coupled to the oxidation of NADH[59]. It was used as described, with minor modifications. ZRANB3 (150 nM) was added to a 150 μl reaction containing 25 mM Tris-Cl pH 7.5, 13 mM MgCl2, 1.8 mM DTT, 100 μg ml^−1 BSA, 3 mM phosphoenolpyruvate, 36 U ml^−1 pyruvate kinase, 20 U ml^−1 lactate dehydrogenase, 0.5 μM flap DNA, and 5 mM ATP, with 750 μM NADH added immediately before ZRANB3. Reactions were mixed for 1 min on a shaker at 23 °C and analysed by measuring A340 nm at 20 s intervals during 60 min, on a Spectramax 250 microplate spectrophotometer at 24 °C. Linear titration of freshly prepared NADH was performed to obtain a standard curve for units of absorbance mM^−1 NADH. ATPase rates were calculated from data collected between time points where product formation was linear with respect to time.

U2OS cells = experiment: Colocalization of YFP-ZRANB3 foci with endogenous PCNA; format: cell-based; conditions: average of three experiments
From the text: Figure 5 PCNA-dependent recruitment of ZRANB3. (a) Recruitment of FEN1 to the sites of laser induced DNA damage is abrogated by the mutations in the PIP box (Q337A, F343A and F344A). U2OS cells were transiently transfected with the indicated YFP constructs and analysed by live-cell imaging. Shown are representative images at the indicated time points post damage. (b) Recruitment of the YFP-tagged PIP box and APIM motif to the sites of laser induced DNA damage. Recruitment is abrogated by the mutations of the conserved residues in the PIP box and the APIM motif. […] The percentage of cells containing ZRANB3 foci that colocalize with PCNA was determined. […]
U2OS cells (ATCC) were seeded onto glass coverslips and transfected with the YFP constructs using Lipofectamine 2000 (Life Technologies). […] The coverslips were mounted in ProLong Gold anti-fade reagent with DAPI (Life Technologies) and analysed by confocal microscopy.
For the recruitment of ZRANB3 to stalled replication forks, U2OS cells were seeded onto glass coverslips and transfected with YFP-ZRANB3 constructs. […] Finally, the samples were analysed by confocal microscopy. For each experiment, more than 100 cells were counted, and the results from three independent transfections were pooled for statistical analyses.

- ATP hydrolysis rate ([1]; A340 nm): 16.59 ± 0.34 µmol/L/min
- k [1]: 110.65 ± 2.27 min⁻¹
B1: WT ZRANB3: full-length human ZRANB3, recombinant; YFP-tagged in the cell assay (protein)
chain: MPRVHNIKKSLTPHISCVTNESDNLLDFLPDRLRAKLLPFQKDGIIFALKRNGRCMVADEMGLGKTIQAIGITYFYKEEWPLLIVVPSSLRYPWTEEIEKWIPELSPEEINVIQNKTDVRRMSTSKVTVLGYGLLTADAKTLIDALNNQNFKVVIVDESHYMKSRNATRSRILLPIVQKARRAILLTGTPALGRPEELFMQIEALFPQKFGRWTDYAKRYCNAHIRYFGKRPQWDCRGASNLNELHQLLSDIMIRRLKTEVLTQLPPKVRQRIPFDLPSAAAKELNTSFEEWEKIMRTPNSGAMETVMGLITRMFKQTAIAKAGAVKDYIKMMLQNDSLKFLVFAHHLSMLQACTEAVIENKTRYIRIDGSVSSSERIHLVNQFQKDPDTRVAILSIQAAGQGLTFTAASHVVFAELYWDPGHIKQAEDRAHRIGQCSSVNIHYLIANGTLDTLMWGMLNRKAQVTGSTLNGRKEKIQAEEGDKEKWDFLQFAEAWTPNDSSEELRKEALFTHFEKEKQHDIRSFFVPQPKKRQLMTSCDESKRFREENTVVSSDPTKTAARDIIDYESDVEPETKRLKLAASEDHCSPSEETPSQSKQIRTPLVESVQEAKAQLTTPAFPVEGWQCSLCTYINNSELPYCEMCETPQGSAVMQIDSLNHIQDKNEKDDSQKDTSKKVQTISDCEKQALAQSEPGQLADSKEETPKIEKEDGLTSQPGNEQWKSSDTLPVYDTLMFCASRNTDRIHIYTKDGKQMSCNFIPLDIKLDLWEDLPASFQLKQYRSLILRFVREWSSLTAMKQRIIRKSGQLFCSPILALEEITKQQTKQNCTKRYITKEDVAVASMDKVKNVGGHVRLITKESRPRDPFTKKLLEDGACVPFLNPYTVQADLTVKPSTSKGYLQAVDNEGNPLCLRCQQPTCQTKQACKANSWDSRFCSLKCQEEFWIRSNNSYLRAKVFETEHGVCQLCNVNAQELFLRLRDAPKSQRKNLLYATWTSKLPLEQLNEMIRNPGEGHFWQVDHIKPVYGGGGQCSLDNLQTLCTVCHKERTARQAKERSQVRRQSLASKHGSDITRFLVKK
modifications: left off: His6, N-terminal, cleaved
notes: full-length human ZRANB3, recombinant; YFP-tagged in the cell assay
- cells that formed ZRANB3 foci (colocalizing with PCNA) (U2OS cells; U2OS cells transfected with YFP-ZRANB3, UV 40 J m^−2, 6 h recovery): > 95%
- cells that formed ZRANB3 foci (colocalizing with PCNA) (U2OS cells; U2OS cells transfected with YFP-ZRANB3, undamaged conditions): ~20%
